Measurements as given in article PMC12245028.

Biological target: p65 (RELA, Transcription factor p65) (UniProt Q04206)
Test: anti-HA co-IP, p65 blot
Settings: reference: HA-WEE1 wild type; sites S642

binding against the reference: lost
Substance: HA-WEE1 (from UniProt P30291) HA-WEE1 S642A
